# Measurements taken from patent US5622933A, “Multiple branch peptide constructions for use against HIV” (priority 1993, dated 1997).
# Where “and” joins values, the source holds several entries; their conditions need not be identical. Identical values can stand only once. Ends that are not written are not given here.
# Columns and labels:
# C57/BL6 black mice = test: Immunogenicity in mice (serum ELISA for anti-MBPC3 antibody); type: in vivo, mouse
# Experimental: The injection route was intraperitoneal. The blood samples were collected by sub-orbital eye punction. The blood samples were left for 1 hour at 37° C., then overnight at 4° C., and the supernatants (serum samples) thus obtained were separated from the pellets. Sera were tested by ELISA, looking for specific anti-MBPC3 antibody.
# […] After saturation with 400 μL of casein (5 g/100 ml), different serum dilutions were added for 2 hours at 37° C. The controls were sera from non-immunized rabbits and mice. After rinsing (5×), 50 μl of 1:5000 of peroxidase-labeled swine anti-rabbit IgG or anti-mouse IgG (Dakopatts, Copenhagen, Denmark) were added for 1 hour at 37° C. After further rinsing (5×), 100 μl of ortho-phenylenediamine were added for 30 min in the dark at room temperature. The reaction was stopped by adding 50 μl of 4N sulfuric acid, and optical density (OD) ratios were determined at 492/620 nm.
# HIV-1 (NDK) = test: Fusion between chronically infected CEM cells and MT-2 cells; type: cell-based; settings: separate tests
# CEM or C8166 cells = settings: concentrations of 10^-7 to 10^-4 M; cultured continuously (15 days)
# Experimental: An MTT assay, a colorimetric cell viability assay using 3-[4,5-Dimethylthiazol-2-yl] 2,5-diphenyltetrazolium bromide, was used to assess the effect of MBPCs on cell viability. CEM or C8166 cells (5×10^4) were cultured continuously (15 days) in the presence of various concentrations of MBPCs in the wells of 96-well microtiter plates in 200 μl final volume of RPMI 1640 medium supplemented with 5% fetal calf serum, 1% glutamine, 1% streptomycin-penicillin (available from Gibco of Irvine, Scotland) in a humidified atmosphere with 5% CO2. Every 3 to 4 days, an MTT assay was performed on 100 μl of cells suspension and MBPC were added to cell culture and the volume completed to 200 μl.
# GalCer receptor = test: Binding of gp120 to GalCer (HPTLC binding assay)
# Experimental: In another experiment with the same MBPCs, the effect of MBPCs on the binding of gp120 to GalCer was analyzed using a high performance thin layer chromatography (HPTLC) binding assay. MBPCs (10^-4 M) were preincubated with GalCer for 1 hour at room temperature. After thorough washing, the HPTLC plates were incubated with HIV-1 recombinant gp120 (2.5 ug/ml) followed by rabbit anti-gp120 and ^125 I-goat anti-rabbit IgG. The plates were washed in PBS and exposed to Amersham Hyperfilm MP for 8 hours. As shown in FIG. 5B treatment of HT-29 cells with active MBPCs protected the cells from infection by HIV-1 (NDK isolate). This antiviral effect was correlated with its ability to block the binding of gp120 to GalCer.
# HIV-2 = test: Infection of human PBLs; type: cell-based; settings: MBPC 10^-5 M
# Experimental: Peripheral blood lymphocytes (PBLs) were obtained from healthy donors, stimulated with phytohemagglutinin, and cultivated in RPMI 1640 containing 10% fetal calf serum and interleukin-2 (complete medium). Samples of 6×10^6 cells/ml were either treated or not treated with the indicated MBPC at a concentration of 10^-5 M and exposed to HIV-1 or HIV-2 (100 TCID50) for 1 hour at 37° C. in the continued presence of MBPCs. After thorough washing, PBLs were cultured in complete medium with 10^-5 M of the corresponding MBPC. The state of infection was assessed by determination of RT activity (for both HIV-1 and HIV-2 isolates) and HIV-1 p24^gag measurements (Coulter kit, cut-off 10 pg/ml) in the case of HIV-1 isolates 10 days post-infection. The MBPC treatment used were as follows: 1-none; 2- [GPGRAF]8 -MLC; 3-[[…]]4 -MLC; 4- [[…]]4 -MLC (a non-HIV related MBPC) (MLC indicates a core lysine structure). The results shown in FIGS. 2A-2C are representative of three separate experiments. The nature of the viral isolates used was checked by PCR (HIV-1 versus HIV-2 isolates) and RIPA for discriminating between HIV-1 (LAI) and HIV-1 (NDK).
substance,measurement,setting,value
(GPGRAF)8 -(K)4 -(K)2 -K-βA-OH [MBPC.3],titers of anti-GPGRAF antibodies,C57/BL6 black mice; mice injected,did not produce significant titers
same,optical density (OD) ratio 492/620 nm (×10^3),"C57/BL6 black mice; plate 1, mouse serum 10^-2, coat 0.5 μg MBPC.3/ml",382 and 381
same,optical density (OD) ratio 492/620 nm (×10^3),"C57/BL6 black mice; plate 1, mouse serum 10^-2, coat 1 μg MBPC.3/ml",444 and 419
same,optical density (OD) ratio 492/620 nm (×10^3),"C57/BL6 black mice; plate 1, mouse serum 10^-2, coat 5 μg MBPC.3/ml",1045 and 933
same,optical density (OD) ratio 492/620 nm (×10^3),"C57/BL6 black mice; plate 1, mouse serum 10^-2, coat 10 μg MBPC.3/ml",1162 and 1199
same,optical density (OD) ratio 492/620 nm (×10^3),"C57/BL6 black mice; plate 1, mouse serum 10^-3, coat 0.5 μg MBPC.3/ml",128 and 135
same,optical density (OD) ratio 492/620 nm (×10^3),"C57/BL6 black mice; plate 1, mouse serum 10^-3, coat 1 μg MBPC.3/ml",126 and 111
same,optical density (OD) ratio 492/620 nm (×10^3),"C57/BL6 black mice; plate 1, mouse serum 10^-3, coat 5 μg MBPC.3/ml",285 and 236
same,optical density (OD) ratio 492/620 nm (×10^3),"C57/BL6 black mice; plate 1, mouse serum 10^-3, coat 10 μg MBPC.3/ml",339 and 291
same,optical density (OD) ratio 492/620 nm (×10^3),"C57/BL6 black mice; plate 1, mouse serum 10^-4, coat 0.5 μg MBPC.3/ml",56 and 38
same,optical density (OD) ratio 492/620 nm (×10^3),"C57/BL6 black mice; plate 1, mouse serum 10^-4, coat 1 μg MBPC.3/ml",50 and 51
same,optical density (OD) ratio 492/620 nm (×10^3),"C57/BL6 black mice; plate 1, mouse serum 10^-4, coat 5 μg MBPC.3/ml",121 and 132
same,optical density (OD) ratio 492/620 nm (×10^3),"C57/BL6 black mice; plate 1, mouse serum 10^-4, coat 10 μg MBPC.3/ml",172 and 138
same,optical density (OD) ratio 492/620 nm (×10^3),"C57/BL6 black mice; plate 2, mouse serum 10^-2, coat 1 μg MBPC.3/ml",381 and 429
same,optical density (OD) ratio 492/620 nm (×10^3),"C57/BL6 black mice; plate 2, mouse serum 10^-2, coat 5 μg MBPC.3/ml",1514 and 1344
same,optical density (OD) ratio 492/620 nm (×10^3),"C57/BL6 black mice; plate 2, mouse serum 10^-2, coat 10 μg MBPC.3/ml",1540 and 1457
same,optical density (OD) ratio 492/620 nm (×10^3),"C57/BL6 black mice; plate 2, mouse serum 10^-3, coat 0.5 μg MBPC.3/ml",47 and 82
same,optical density (OD) ratio 492/620 nm (×10^3),"C57/BL6 black mice; plate 2, mouse serum 10^-3, coat 1 μg MBPC.3/ml",54 and 65
same,optical density (OD) ratio 492/620 nm (×10^3),"C57/BL6 black mice; plate 2, mouse serum 10^-3, coat 5 μg MBPC.3/ml",263 and 273
same,optical density (OD) ratio 492/620 nm (×10^3),"C57/BL6 black mice; plate 2, mouse serum 10^-3, coat 10 μg MBPC.3/ml",334 and 291
same,optical density (OD) ratio 492/620 nm (×10^3),"C57/BL6 black mice; plate 2, mouse serum 10^-4, coat 1 μg MBPC.3/ml",15 and 17
same,optical density (OD) ratio 492/620 nm (×10^3),"C57/BL6 black mice; plate 2, mouse serum 10^-4, coat 5 μg MBPC.3/ml",88 and 97
same,optical density (OD) ratio 492/620 nm (×10^3),"C57/BL6 black mice; plate 2, mouse serum 10^-4, coat 10 μg MBPC.3/ml",132 and 188
same,optical density (OD) ratio 492/620 nm (×10^3),"C57/BL6 black mice; plate 3, mouse serum 10^-2, coat 0.5 μg MBPC.3/ml",204 and 198
same,optical density (OD) ratio 492/620 nm (×10^3),"C57/BL6 black mice; plate 3, mouse serum 10^-2, coat 1 μg MBPC.3/ml",241 and 200
same,optical density (OD) ratio 492/620 nm (×10^3),"C57/BL6 black mice; plate 3, mouse serum 10^-2, coat 5 μg MBPC.3/ml",636 and 630
same,optical density (OD) ratio 492/620 nm (×10^3),"C57/BL6 black mice; plate 3, mouse serum 10^-2, coat 10 μg MBPC.3/ml",639 and 664
same,optical density (OD) ratio 492/620 nm (×10^3),"C57/BL6 black mice; plate 3, mouse serum 10^-3, coat 0.5 μg MBPC.3/ml",48 and 49
same,optical density (OD) ratio 492/620 nm (×10^3),"C57/BL6 black mice; plate 3, mouse serum 10^-3, coat 1 μg MBPC.3/ml",50 and 53
same,optical density (OD) ratio 492/620 nm (×10^3),"C57/BL6 black mice; plate 3, mouse serum 10^-3, coat 5 μg MBPC.3/ml",159 and 163
same,optical density (OD) ratio 492/620 nm (×10^3),"C57/BL6 black mice; plate 3, mouse serum 10^-3, coat 10 μg MBPC.3/ml",172 and 168
same,optical density (OD) ratio 492/620 nm (×10^3),"C57/BL6 black mice; plate 3, mouse serum 10^-4, coat 0.5 μg MBPC.3/ml",22 and 21
same,optical density (OD) ratio 492/620 nm (×10^3),"C57/BL6 black mice; plate 3, mouse serum 10^-4, coat 1 μg MBPC.3/ml",22
same,optical density (OD) ratio 492/620 nm (×10^3),"C57/BL6 black mice; plate 3, mouse serum 10^-4, coat 5 μg MBPC.3/ml",83 and 84
same,optical density (OD) ratio 492/620 nm (×10^3),"C57/BL6 black mice; plate 3, mouse serum 10^-4, coat 10 μg MBPC.3/ml",85 and 84
same,optical density (OD) ratio 492/620 nm (×10^3),"C57/BL6 black mice; plate 4, mouse serum 10^-2, coat 0.5 μg MBPC.3/ml",495 and 468
same,optical density (OD) ratio 492/620 nm (×10^3),"C57/BL6 black mice; plate 4, mouse serum 10^-2, coat 1 μg MBPC.3/ml",553 and 439
same,optical density (OD) ratio 492/620 nm (×10^3),"C57/BL6 black mice; plate 4, mouse serum 10^-2, coat 5 μg MBPC.3/ml",1233 and 1336
same,optical density (OD) ratio 492/620 nm (×10^3),"C57/BL6 black mice; plate 4, mouse serum 10^-2, coat 10 μg MBPC.3/ml",1454 and 1340
same,optical density (OD) ratio 492/620 nm (×10^3),"C57/BL6 black mice; plate 4, mouse serum 10^-3, coat 0.5 μg MBPC.3/ml",90 and 95
same,optical density (OD) ratio 492/620 nm (×10^3),"C57/BL6 black mice; plate 4, mouse serum 10^-3, coat 1 μg MBPC.3/ml",83 and 88
same,optical density (OD) ratio 492/620 nm (×10^3),"C57/BL6 black mice; plate 4, mouse serum 10^-3, coat 5 μg MBPC.3/ml",299 and 297
same,optical density (OD) ratio 492/620 nm (×10^3),"C57/BL6 black mice; plate 4, mouse serum 10^-3, coat 10 μg MBPC.3/ml",334 and 318
same,optical density (OD) ratio 492/620 nm (×10^3),"C57/BL6 black mice; plate 4, mouse serum 10^-4, coat 0.5 μg MBPC.3/ml",28
same,optical density (OD) ratio 492/620 nm (×10^3),"C57/BL6 black mice; plate 4, mouse serum 10^-4, coat 1 μg MBPC.3/ml",27 and 21
same,optical density (OD) ratio 492/620 nm (×10^3),"C57/BL6 black mice; plate 4, mouse serum 10^-4, coat 5 μg MBPC.3/ml",124 and 103
same,optical density (OD) ratio 492/620 nm (×10^3),"C57/BL6 black mice; plate 4, mouse serum 10^-4, coat 10 μg MBPC.3/ml",133 and 113
same,block of fusion,HIV-1 (NDK),able to block the fusion
same,toxicity to cells (MTT assay),CEM or C8166 cells,not toxic
same,binding to / activity on the Galactosyl Ceramide receptor,GalCer receptor,bind to the second receptor
"(RKSIHIGPGRAFYT)4 -(K)2 -K-βA-OH (also: four copies on lysine core (K)2-K-βA-OH) [MBPC.5, tetradecapeptide MBPC]","potency for inhibition of HIV-2 infection, in words",HIV-2,less potent than [GPGRAF]8 -MLC
